The subject of data set [1] is T1, C[N+](C)(C)C[C@H](O)CC(=O)O.
T1 construct: full-length with C-terminal 6His tag (pET21a), expressed in E. coli JW0039 (delta caiT), Ni-NTA purified; homotrimer (D288A and D288R mostly monomeric); DDM-solubilized or in proteoliposomes
Nature of the data set: purified protein. It is filed as biochemical, Escherichia coli. The conditions noted are these: labelled compound, proteoliposomes preloaded with 10 mM L-carnitine, potassium phosphate pH 7.5, 25 °C.

The target of the next data set is CaiT-M295E (E. coli) (UniProt P31553). Nature of the data set: native gel or EMSA; blue native PAGE, 4–16.5% gradient gel, 5 µg purified protein per lane, in detergent solution.
Another data set has as its target CaiT-R299A (E. coli) (UniProt P31553). Described as above.

A word on the Km: it is the substrate concentration at which the rate is half of its maximum. One may read the Vmax as the rate approached at saturating substrate.

A value given as a limit tells only on which side of the number the result lay.

Regarding CaiT (Escherichia coli K-12; D288A), in data set [1] (mostly monomeric variant), the Michaelis constant (Km) worked out at 114.1 ± 17.9 µM and the maximum rate (Vmax) came to 1.86 µmol/min/mg. In turn, “CaiT-M295E (from UniProt P31553 1-504) (natural protein)” registered a percent of the protein in the monomeric state with CaiT-M295E (E. coli) above 80%.

With “CaiT-R299A (from UniProt P31553 1-504) (natural protein)”, the percent of the protein in the monomeric state with CaiT-R299A (E. coli) was above 80%.

In the case of CaiT (Escherichia coli K-12), in data set [1], the Km amounted to 45.3 ± 6.9 µM and the Vmax stood at 2.13 µmol/min/mg.
